Consider 18 molecules from publication PMC9942873 (Immunity, 2023).

Assay in all cases: ELISA
Conditions in all cases: both partners purified
Background: An ELISA detects its analyte on a solid surface through an enzyme-linked reagent.

Assay [1] has as its target T1, Pfs48/45 D1-2 (Plasmodium falciparum 3D7, UniProt Q8I6T1).
For assay [2], the target named is T2, recombinant full-length Pfs48/45 (Plasmodium falciparum 3D7, UniProt Q8I6T1).
A further assay has as its target Pfs48/45 D2-3 (Plasmodium falciparum 3D7, UniProt Q8I6T1).
Assay [3] deals with T1, Pfs48/45 D1-2. The source holds these as a separate data set.
The target in assay [4] is T2, recombinant full-length Pfs48/45. The source holds these as a separate data set.

T1 sequence (Q8I6T1 28-289): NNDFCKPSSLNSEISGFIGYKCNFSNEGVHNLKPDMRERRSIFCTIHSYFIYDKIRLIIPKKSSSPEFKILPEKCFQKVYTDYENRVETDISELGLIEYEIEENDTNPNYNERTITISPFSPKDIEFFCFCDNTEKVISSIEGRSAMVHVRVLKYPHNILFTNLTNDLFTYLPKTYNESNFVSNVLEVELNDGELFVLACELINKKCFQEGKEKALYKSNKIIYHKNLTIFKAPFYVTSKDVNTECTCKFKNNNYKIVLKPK
T2 sequence (Q8I6T1 28-428): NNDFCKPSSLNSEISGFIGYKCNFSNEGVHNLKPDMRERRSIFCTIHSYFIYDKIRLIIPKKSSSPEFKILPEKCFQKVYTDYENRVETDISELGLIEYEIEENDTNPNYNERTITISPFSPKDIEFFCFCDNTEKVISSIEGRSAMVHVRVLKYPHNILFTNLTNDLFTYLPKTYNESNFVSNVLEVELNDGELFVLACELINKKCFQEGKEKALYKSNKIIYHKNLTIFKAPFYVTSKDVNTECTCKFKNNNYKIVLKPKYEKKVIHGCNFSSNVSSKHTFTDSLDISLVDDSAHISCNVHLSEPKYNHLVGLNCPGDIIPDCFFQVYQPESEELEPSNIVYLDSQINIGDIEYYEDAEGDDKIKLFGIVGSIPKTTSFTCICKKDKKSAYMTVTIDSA
Chain of Pfs48/45 D2-3 (Q8I6T1 184-428): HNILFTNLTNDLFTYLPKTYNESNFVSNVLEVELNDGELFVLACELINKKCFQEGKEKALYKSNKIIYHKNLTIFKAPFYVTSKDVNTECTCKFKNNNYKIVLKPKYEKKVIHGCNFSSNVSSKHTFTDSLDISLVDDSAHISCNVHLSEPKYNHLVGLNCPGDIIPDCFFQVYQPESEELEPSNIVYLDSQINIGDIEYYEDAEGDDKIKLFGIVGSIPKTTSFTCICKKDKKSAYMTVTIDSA

B1: RUPA-104 (antibody, V domains shown)
VH: QVQLVQSGAEVKKPGASVKISCKTSGYTFTNYDINWVRQATGRGLEWMGWINPNTGKTGFAQKFQGRVTMTRSTSISTAYMELSSLRSEDTAVYYCARGVTTPDYFDSWGQGTLVTVSS
VL: DIQMTQSPSSVSASVGDRVSITCRASQDISGWLAWYQQKPGKAPKLLIYAASTLRTGVPSRFSGSGSGTDFTLTISSLQPEDFATYYCLQANSLPVTFGQGTRLEIT
notes: human IgG1; source: recombinant human IgG1, 293T (Protein A purified) or GenScript
In the case of B1, the binding result (with Pfs48/45 D1-2 [1]; in assay [2]; with Pfs48/45 D2-3) was “binds” each time.

B2: RUPA-77 (antibody, V domains shown)
VH: QITLKESGPTLVKPTQTLTLTCSFSGFSLTTAGVAVAWIRQPPGQALEWLGIIYWNDDKRYNPSFQNRLTIAKDTSKNQVVLTMTNMDPVDTGTYYCAHRILAAYNYFDPWGQGTLVTVSS
VL: DIQMTQSPPSLSASVGDRVTITCRASQPINNFLNWYQQRPGKAPKLLIYAASRLQSGVPSRFSGSVSGTDFTLTISSLQQEDFAIYYCQQSYTSPLTFGGGTKVEIK
notes: as for B1
As for B2, the binding result (with Pfs48/45 D1-2 [3]; in assay [4]) was “binds” throughout.

B3: RUPA-36 (antibody, V domains shown)
VH: QVQLQQWGAGLLKPSETLSLTCAVEGDSLGDYYWSWIRQPPGKGLEWIGDINHSGTTNYIPSLKSRVTISVDPSRKHFSLKLNFVTAADTATYFCARRASGWYRQSRYTGWFDPWGQGTLVTVSS
VL: EIVMTQSPATLSVSPGERATLSCRASHSINSNVAWYQQKPGQAPRLLIYGASTRATGIPARFSGSGSGTEFTLTISSLQTEDFAVYYCQQYNNWPGLSFGGGTKVEIK
notes: as for B1
As to B3, the binding result (with Pfs48/45 D1-2 [3]; in assay [4]) was “binds” in each case.

B4: RUPA-105 (antibody, V domains shown)
VH: QVQLVQSGAEVKKPGASVKVSCTASGYNFLTHDISWVRQATGQGLEWMGWMNPNTGKKGYVQKFQGRVTMDRDMSKSTGYMELRSLTSEDTAVYYCVRGVGSYYGSGGWLDPWGQGTLVIVSS
VL: QSVLTQPPSASETPGQKVTISCSGSSSNIGSDTVSWYVQVPGTAPKLLIYNDNQRPSGVPDRFSGSKSGTSASLAISGLQSEDEADYYCATWDASLKRRVFGGGTTLTVL
notes: as for B1
On to B4, for which the binding result (in the assay with Pfs48/45 D1-2 [1]; in assay [2]; with Pfs48/45 D2-3) was “binds” in each case.

B5: RUPA-26 (antibody, V domains shown)
VH: QVQLQQWGAGLLKPSETLSLTCLVNGGSFSDYYWSWIRQPPGRGLEWIGDVNHSGTTNHRPSLQSRVTLSLDMSKNQFSLKLTSVTAADTAVYFCARRSSGYYRGSRYTGWFDPWGQGTLVTVSS
VL: EIVLTQSPATLSVSPGERATLSCRASQTITRNLAWYQQKPGQAPRLLIYGASTRAPDIPARFSGSGSGTEFTLTISSLQSEDFALYYCQQYNNWPGLTFGGGTKVEIK
notes: as for B1
With B5, the binding result (in the assay with Pfs48/45 D1-2 [3]; in assay [4]) was “binds” in each case.

B6: RUPA-45 (antibody, V domains shown)
VH: QVQLQQWGAGLLKPSETLSLTCLVNGGSFSDYYWSWIRQPPGRGLEWIGDVNHSGTTNHRPSLQSRVTLSLDMSKNQFSLRLTSVTAADTAVYFCARRSSGYYRGSHYTGWFDPWGQGTLVTVSS
VL: EIVLTQSPATLSVSPGERATLSCRASQTITRNLAWYQQKPGQAPRLLIYGASTRAPDIPARFSGSGSGTEFTLTISSLQSEDFALYYCQQYNNWPGLTFGGGTKVEIK
notes: as for B1
For B6, the binding result (in the assay with Pfs48/45 D1-2 [3]; in assay [4]) was “binds” each time.

B7: RUPA-90 (antibody, V domains shown)
VH: EVQLVESGGGLVQPGGSLRLSCAASGFMFSSYWMTWVRQAPGKGLEWVANIKEDGSEKYYVDSVKGRFTISRDNAENSLYLHMNSLRAADTAVYYCAREGDVFVAPSAVRKGGVYGMDVWGQGTTVTVSS
VL: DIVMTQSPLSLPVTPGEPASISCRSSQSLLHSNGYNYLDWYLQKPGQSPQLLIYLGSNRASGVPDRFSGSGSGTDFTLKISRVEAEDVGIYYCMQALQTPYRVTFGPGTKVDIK
notes: as for B1
In the case of B7, the binding result (with Pfs48/45 D1-2 [1]; in assay [2]; with Pfs48/45 D2-3) was “binds” in each case.

B8: RUPA-78 (antibody, V domains shown)
VH: EGQLLESGGDLVQPGGSLRLSCAASRFTFNTFAMTWVRQAPGKGLEWVSTISRSGSSTFYADSVKGRFTISRDNSKDTLYLQMNSLRAEDTALYSCAKFRTPRFSSSSGDALDLWGQGTMVTVSS
VL: EIVLTQSPGTLSLSPGERATLSCRASQSVSSSYFAWYQRRPGQAPRLVIDGASSRATGIPDRFSGSGSGTDFTLTISRLEPEDFAVYYCQQYGVSPGTFGQGTKLEIK
notes: as for B1
Regarding B8, the binding result (in the assay with Pfs48/45 D1-2 [3]; in assay [4]) was “binds” throughout.

B9: RUPA-46 (antibody, V domains shown)
VH: QVQLVQSGGGLVKPGGSLKLSCAASGFAFSDYYMHWIRQSPGKGLEWISYVSNSGNTIYYADSVKGRFTISRDNTKNSLFLQMNSLSADDTAVYYCARDRKGRNSETYYGALDVWGQGTTVTVST
VL: DIVMTQSLDSLAVSLGERATINCKSSQSVFSTYNNKNYLAWYQQKLGQPPKLLIYWASTRESGVPDRFSGSGSGTDFTLTISSLQAEDVAVYYCQQYYTTPTWTFGQGTKVEIK
notes: as for B1
With B9, the binding result (with Pfs48/45 D1-2 [3]; in assay [4]) was “binds” each time.

B10: RUPA-111 (antibody, V domains shown)
VH: EVQLVESGGGLVQPGGSLRLSCVVSGFTFSRYSMYWVRQAPGKGPEWVSYIDSTGTTIYYADSVKGRFTISRDNAKSSLSLQMSSLRDDDRGVYYCARDGRKDSGSFLDHWGQGTLVIVSS
VL: DIQMTQSPSTLSASVGDRVTITCRASQSISEWLAWYQQKPGKAPRLLIYQASSLQSGVPSRFSGSGSGTEFTLTISSLQSDDFATYYCQQFDTYWTFGQGTKVEVR
notes: as for B1
Turning to B10, the binding result (with Pfs48/45 D1-2 [1]; in assay [2]; with Pfs48/45 D2-3) was “binds” in each case.

B11: RUPA-108 (antibody, V domains shown)
VH: EVVLVESGGGLIQPGGSLRLSCAASGFTVSSSYMSWVRQAPGKGLEWVSVIYSGAGGGSIYYADSVKGRFTISRDNLKNTLYLQMNSLRVEDAAVYYCVRDSRGWGYFDDWGQGTLVTVSS
VL: EIILTQSPGTLSLSPGERATLSCRASQSIRTNYLAWYQRKPGQTPRLLIYGASSRATGIPDRFSGSGSGTDFTLTISRLEPEDFAEYFCQQYQNSPWTFGQGTIVEIK
notes: as for B1
As to B11, the binding result (with Pfs48/45 D1-2 [1]; in assay [2]; with Pfs48/45 D2-3) was “binds” throughout.

B12: RUPA-30 (antibody, V domains shown)
VH: QVQLVQSGAEVKKPGASVKVSCKASGYTFTTYFLHWVRQAPGQGLEWMGVIHPSGGSTTYAENFEGRVTMSRDTSTSTVYMELSSVRYEDTAVYYCARAGEYCRGIRCYIDGLDIWGQGTTVTVSS
VL: DIQMTQSPSSLSASVGDRVTITCRASQGIRNDLGWYQQKPGKAPKRLIYAASSLQSGVPSRFSGSGSGTEFTLTISSLQPEDFATYYCLQHNDSPWTFGQGTKVEIK
notes: as for B1
Turning to B12, the binding result (with Pfs48/45 D1-2 [3]; in assay [4]) was “binds” throughout.

B13: RUPA-37 (antibody, V domains shown)
VH: QEQLVQSGAELRTPGATVKVSCKAPAYTFTTYFMHWVRQAPGRGFEWLGRINPSRGSTTYADKFQGRVTMTSDTSTTTVFMEVTNLRSEDTAVYYCARAGEYCRGIRCYVDGIDMWGQGTMITVSS
VL: DIQMTQSPSSLSASIGDRVTITCRASQGIRNDLGWYQQKPGKAPQRLIYAASSLQSGVPSRFSGSGSGTEFTLTISSLQPEDFASYFCLQHNSSPWTFGQGTKVEIK
notes: as for B1
With B13, the binding result (with Pfs48/45 D1-2 [3]; in assay [4]) was “binds” throughout.

B14: RUPA-88 (antibody, V domains shown)
VH: QVHLVQSGAEVKKPGASVKVSCKASGYNFLYHDITWVRQATGQGLEWLGWMNPNTGDTGYAQNFQGRVTMTRDMSRSTAYLELGSLRSEDTAVYYCARGVGSYHGSGGWLDPWGPGTLVIVSS
VL: QSVLTQPPSVSETPGQRVTISCSGSSSNIGLNTVNWYQQLPGTAPKLLIHNDNQRPSGVPDRFSGSKSGTSASLAISGLHSEDEADYYCATWDDSLKRRVFGGGTKLTVL
notes: as for B1
B14: the binding result (with Pfs48/45 D1-2 [1]; in assay [2]; in the assay with Pfs48/45 D2-3) was “binds” each time.

B15: RUPA-99 (antibody, V domains shown)
VH: QVHLVQSGAEVKKPGASVKVSCKASGYNFLYHDITWVRQATGQGLEWLGWMNPNTGDTGYAQNFQGRVTMTRDMSRSTAYMELDSLRSEDTAVYYCARGVGSYHGSGGWLDPWGPGTLVIVSS
VL: QSVLTQPPSVSETPGQRVTISCSGSSSNIGLNTVNWYQQLPGTAPNLLIHNDNQRPSGVPDRFSGSKSGTSASLAISGLHSEDEADYYCATWDDSLKRRVFGGGTKLTVL
notes: as for B1
As to B15, the binding result (with Pfs48/45 D1-2 [1]; in assay [2]; with Pfs48/45 D2-3) was “binds” in each case.

B16: RUPA-87 (antibody, V domains shown)
VH: QVQVVQSGAEVRKPGASVKVSCKTSGYTFIYYYIHWVRQAPGQGLEWLGWINPNSGGTKYAQQFQGRVTVTRDTSVSTAYMELNGLTSDDTAVYYCARVVAAEGYFDYWGQGTLLTVSS
VL: DIQMTQSPSSVSASVGDRVTITCRASQGISGWLAWYQQKPGKAPKLLIYAASTLQSGVPSRFSGSGSGTDFTLTISSLQPDDFATYFCQQANSFPLTFGGGTKISLK
notes: as for B1
B16: the binding result (with Pfs48/45 D1-2 [1]; in assay [2]; in the assay with Pfs48/45 D2-3) was “binds” in each case.

B17: RUPA-92 (antibody, V domains shown)
VH: QVQLVQSGAEVKKPGASVKVSCKASGYTFTSHDIIWVRQATGQGLEWMGWMNPNTGDKGYAQKFQGRVTMTRSMSISTAYMELRSLRSEDTAVYYCARGVGTYRGSGGWFDPWGPGTLITVSS
VL: QSALTQPRSVSGSPGQSVTISCTGTSGDVGGFNYVSWYQQHPGKTPRLMLYHVTKRPSGVPDRFSGSKSGNTASLTISGLQADDEADYYCCSYAGNYIEIFGGGTKLTVL
notes: as for B1
On to B17, for which the binding result (in the assay with Pfs48/45 D1-2 [1]; in assay [2]; in the assay with Pfs48/45 D2-3) was “binds” throughout.

B18: RUPA-91 (antibody, V domains shown)
VH: QVQLVQSGAEVKKIGASVKVSCKASGYTFTSHDIIWVRQAAGQGLEWMGWMNPNTGKKGYVEKFQGRVTLTRNMSTGTAYMELSSLRSDDTAVYYCARGVGTYHGSEGWLDPWGQGTLITVSS
VL: QSVLTQPPSASETPGQRVTISCSGSSSNVGSNSVNWYQQVPGTAPKLLIYNTNQRPSGVPARFSGSKSGTSASLAISGLHSEDEADYYCATWDGSLKKGVFGGGTKVTVL
notes: as for B1
Turning to B18, the binding result (with Pfs48/45 D1-2 [1]; in assay [2]; with Pfs48/45 D2-3) was “binds” each time.
